Like-named read-outs stand apart in the source and are kept apart here.

Data set [1] concerns the molecule itself. Description: SDS-resistant dimer on SDS-PAGE immunoblot. On the technique in general: A western blot detects proteins with antibodies after separation by electrophoresis.
Data set [2] concerns the molecule itself. The data set is described as follows: SDS-resistant dimer on SDS-PAGE immunoblot. The source holds these as a separate data set.

B1: FLAG-HA-tagged AKAP95 (FH-AKAP95), wild type (natural protein)
chain: not shown
For orientation: stoichiometry N means the number of molecules, sites or subunits per partner or assembly. In the case of B1, the “stoichiometry N” value in data set [1] came to 2.

B2: AKAP95 (endogenous, HeLa cell nuclear extract) (natural protein)
chain: not shown
As for B2, in data set [2], the “stoichiometry N” value stood at 2.

(Values after paper PMC7425812 (Nature cell biology, 2020).)
